From patent US20060140967A1 (US Dept. of Health and Human Services, published 2006)

Key:
[1] = biological target: T1, HLA-A2.1 molecules on TAP-deficient T2 cells (human); assay: T2 binding assay, flow cytometry with anti-HLA-A2.1
T1 construct: MHC class I molecule on T2 cells; also called HLA-A2 molecules

[2] = biological target: T1, HLA-A2.1 molecules on TAP-deficient T2 …; assay: T2 binding assay, flow cytometry; reference TARP-29-37
[3] = biological target: T1, HLA-A2.1 molecules on TAP-deficient T2 …; assay: T2 binding assay, flow cytometry

B1: TARP-2-9 (peptide)
peptide: QMFPPSPL
notes: The limits should be checked against the listing
Does B1 bind [1]?
Result: no binding

Does RLEHTFVFL [TARP-22-30] bind [1]?
Result: no binding

Which “fold higher binding affinity than TARP-29-37” value [2] does the source give for FVFLRNFSL [TARP-27-35] here?
Its value is about 10 fold.

Does FVALRNFSL [TARP-27-35 with substitution with Ala at position 3] bind [1]?
Result: no binding

Does FLFLRNFSL [TARP-27-35-2L] bind [3]?
Result: binds

Does FVFLRNFSV [TARP-27-35-9V] bind [3]?
Result: binds

Does FLRNFSLML (also called wild-type peptide) [TARP-29-37] bind [3]?
Result: binds

Does FLRNFSLMV [TARP-29-37-9V] bind [3]?
Result: binds

Does FLANFSLML [TARP-29-37-3A] bind [3]?
Result: binds
